Test [1] concerns the target CD3 (CD3ε/δ-complex) on T cells (human) (UniProt P07766). Nature of the test: flow cytometry on Jurkat cells (CD3+ and TCRab+), PE-labeled secondary reagent.
Test [2] has the same target. As to the kind of experiment: flow cytometry on Jurkat cells (CD3+, TCRab+), bound TCER stained with a PE-labeled secondary reagent. Background: Flow cytometry measures light scatter and fluorescence of single cells or particles in a stream.
Test [3] has as its target TCR alpha/beta on Jurkat cells (human). Nature of the test: flow cytometry on Jurkat cells (CD3+ and TCRab+), PE-labeled secondary reagent.

Chain of UniProt P07766 (P07766 23-207, stated change not applied, chain 1 of 2): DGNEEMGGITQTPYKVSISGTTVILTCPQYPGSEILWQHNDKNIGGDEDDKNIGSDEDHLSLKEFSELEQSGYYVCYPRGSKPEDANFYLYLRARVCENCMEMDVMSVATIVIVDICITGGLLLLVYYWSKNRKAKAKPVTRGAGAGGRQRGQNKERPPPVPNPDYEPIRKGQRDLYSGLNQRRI
Chain of UniProt P07766 (P04234 22-171, stated change not applied, chain 2 of 2, further chain): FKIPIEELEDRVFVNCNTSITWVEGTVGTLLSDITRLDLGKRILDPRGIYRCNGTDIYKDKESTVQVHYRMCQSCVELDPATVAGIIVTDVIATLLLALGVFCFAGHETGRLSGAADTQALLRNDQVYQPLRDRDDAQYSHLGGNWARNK

B1: PRAME-004 targeting TCER® molecule with the recruiting domains of humanized UCHT1(V17) (protein)
chain 1: QKEVEQNSGPLSVPEGAIASLNCTYSDRGSQSFFWYRQYSGKSPELIMSIYSNGDKEDGRFTAQLNKASQYVSLLIRDSQPSDSATYLCAAVIDNDQGGILTFGTGTRLTIIPNIQNGGGSGGGGDIQMTQSPSSLSASVGDRVTITCRASQDIRNYLNWYQQKPGKAPKLLIYYTSRLHSGVPSRFSGSGSGTDYTLTISSLQPEDIATYFCQQGQTLPWTFGQGTKVEIKEPKSSDKTHTCPPCPAPPVAGPSVFLFPPKPKDTLMISRTPEVTCVVVDVSHEDPEVKFNWYVDGVEVHNAKTKPREEQYQSTYRVVSVLTVLHQDWLNGKEYKCKVSNKALPASIEKTISKAKGQPREPQVYTLPPCRDELTKNQVSLWCLVKGFYPSDIAVEWESNGQPENNYKTTPPVLDSDGSFFLYSKLTVDKSRWQQGNVFSCSVMHEALHNHYTQKSLSLSPGK
chain 2: EVQLVQSGAEVKKPGASVKVSCKASGYSFTGYTMNWVRQAPGQGLEWMGLINPYKGVSTYAQKFQDRVTLTVDKSTSTAYMELSSLRSEDTAVYYCARSGYYGDSDWYFDVWGQGTLVTVSSGGGSGGGGKAGVTQTPRYLIKTRGQQVTLSCSPIPGHRAVSWYQQTPGQGLQFLFEYVHGEERNKGNFPGRFSGRQFSNSSSEMNISNLELGDSALYLCASSPWDSPNVQYFGPGTRLTVTEDLKNEPKSSDKTHTCPPCPAPPVAGPSVFLFPPKPKDTLMISRTPEVTCVVVDVSHEDPEVKFNWYVDGVEVHNAKTKPREEQYQSTYRVVSVLTVLHQDWLNGKEYKCKVSNKALPASIEKTISKAKGQPREPQVCTLPPSRDELTKNQVSLSCAVKGFYPSDIAVEWESNGQPENNYKTTPPVLDSDGSFFLVSKLTVDKSRWQQGNVFSCSVMHEALHNHYTQKSLSLSPGK
On to B1, for which, in test [1], the half-maximal effective concentration (EC50) was in the range of 2 to 3 nM. The EC50 (read off the curve) in test [2] worked out at 2 nM.

B2: PRAME-004 targeting TCER® molecule with the recruiting domains of humanized BMA031(V10) (protein)
chain 1: QIQMTQSPSSLSASVGDRVTITCSATSSVSYMHWYQQKPGKAPKRWIYDTSKLASGVPSRFSGSGSGTDYTLTISSLQPEDAATYYCQQWSSNPLTFGGGTKVEIKGGGSGGGGKAGVTQTPRYLIKTRGQQVTLSCSPIPGHRSVSWYRQTPGQGLQFLFEYVHGEERNKGNFPGRFSGRQFSNSSSEMNISNLELGDSALYLCASSPWDSPNVQYFGPGTRLTVTEDLKNEPKSSDKTHTCPPCPAPPVAGPSVFLFPPKPKDTLMISRTPEVTCVVVDVSHEDPEVKFNWYVDGVEVHNAKTKPREEQYQSTYRVVSVLTVLHQDWLNGKEYKCKVSNKALPASIEKTISKAKGQPREPQVYTLPPCRDELTKNQVSLWCLVKGFYPSDIAVEWESNGQPENNYKTTPPVLDSDGSFFLYSKLTVDKSRWQQGNVFSCSVMHEALHNHYTQKSLSLSP
chain 2: QKEVEQNSGPLSVPEGAIASLNCTYSDRGSQSFFWYRQYSGKSPELIMSIYSNGDKKDGRFTAQLNKASQYVSLLIRDSQPSDSATYLCAAVIDNDQGGILTFGTGTRLTIIPNIQNGGGSGGGGEVQLVQSGAEVKKPGASVKVSCKASGYKFTSYVMHWVRQAPGQGLEWMGYINPYNDVTKYAEKFQGRVTLTSDTSTSTAYMELSSLRSEDTAVHYCARGSYYDYDGFVYWGQGTLVTVSSEPKSSDKTHTCPPCPAPPVAGPSVFLFPPKPKDTLMISRTPEVTCVVVDVSHEDPEVKFNWYVDGVEVHNAKTKPREEQYQSTYRVVSVLTVLHQDWLNGKEYKCKVSNKALPASIEKTISKAKGQPREPQVCTLPPSRDELTKNQVSLSCAVKGFYPSDIAVEWESNGQPENNYKTTPPVLDSDGSFFLVSKLTVDKSRWQQGNVFSCSVMHEALHNHYTQKSLSLSP
Consider B2, for which, in test [3], the fold weaker binding than the UCHT1-based TCER®-molecule was 50 to 100 fold.

Broadly, the EC50 is the concentration giving half of the maximal effect. High values mean a need for much substance, low ones an effect from little substance. Usually EC50 (read off the curve) stands for the concentration that produces a half-maximal response. A lower EC50 (read off the curve) goes with an effect from little substance.

Source of the values: patent publication US20230203200A1.
